Laboratory results: the supplement of paper PMC10567573

B1: GAGE1 (parent)
chain: QPPEMIGPMRPEQFSDEVEPATPE
B2: KLHL14 (parent)
chain: YVIGGRNETGYLSSVECYNLETNE

Variants of: B1
Assay: protein stability index of a GFP-peptide fusion (GPS, HEK-293T) (PSI 1-6); higher = more stable
Conditions: c terminus: a fixed tail appended
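Note: lentivirally expressed fusions sorted by FACS into six bins by GFP to DsRed ratio, PSI derived from sequencing read proportions per bin multiplied by bin number.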

Protein stability index of substitutions, site by site:
E17: N 5.01, D 4.85, C 4.91, I 4.89, A 5.08, L 5.04, G 5.16, T 5.08, K 5.12, V 4.96, M 5.16, Y 4.05, P 4.73, Q 5.42, R 5.34, H 5.56, S 5.44, W 4.85, F 4.86
S15: V 4.73, W 4.8, R 5.37, T 5.27, P 4.67, Y 4.59
P23: M 5.05, W 4.41, D 5.28, L 4.9, F 4.69, G 5.2, I 4.72, R 5.3, S 5.14, A 5.02, C 4.57, H 5, K 5.1, E 4.81, V 4.5, T 4.81, Q 5.16, Y 4.4, N 5.26
A21: M 5.17, E 5.21, F 5.05, Q 4.79, V 5.34, L 4.9, D 5.12, T 4.83, P 4.6, R 5, G 4.98, S 4.79, K 5.32, N 4.29, Y 4.08, I 4.87, W 4.7, C 4.59, H 4.66
D16: I 5.39, C 4.96, W 5.24, L 5.32, K 5.51, G 4.98, R 5.33, H 5.57, A 5.69, Y 5.43, N 5.38, M 5.32, S 5.31, V 5.54, Q 5.6, P 5.66, F 5.74, E 3.25, T 5.46
T22: Y 4.84, F 4.46, E 5.2, Q 5.2, M 4.79, P 5.08, N 4.56, W 4.35, C 4.97, A 4.6, K 4.96, G 5.15, V 4.8, R 4.61, D 5.43, I 4.66, L 4.79, H 4.89
E19: G 4.86, D 5.25, L 4.04, I 5.05, W 4.75, R 3.98, T 5.17, N 5.06, S 5.18, K 4.42, P 4.43, Q 5.33, M 4.83, F 4.95, A 5.03, Y 4.65, H 5.04, V 4.09, C 4.62
E24: V 4.45, A 4.99, P 4.65, N 5.18, S 4.65, L 4.09, Y 4.57, W 4.16, F 4.83, R 4.27, I 4.56, T 4.98, H 4.62, Q 4.61, D 4.51, G 4.67, K 4.68, C 4.6, M 4.37
P20: D 5.25, Y 5.13, F 4.98, A 4.44, G 5.36, W 3.7, T 4.91, S 5.18, L 5.27, M 4.65, I 4.96, C 4.84, R 5, H 5.46, K 4.79, Q 5.21, N 4.75, E 4.92
V18: E 4.96, F 5.13, W 5.04, N 5.32, H 5.26, A 5.25, D 4.79, S 5.44, I 4.91, Q 5.35, P 4.85, Y 4.22, G 4.72, L 4.59, C 4.78, K 5.12, R 4.85, T 4.79, M 4.75

Variants of: B2
Assay: as above
Conditions: c terminus: a fixed tail appended

Protein stability index of substitutions, site by site:
G10: N 1.65, Y 1.6, H 1.45, A 1.88, K 2.13, V 1.98, C 2.58, I 1.25, T 1.6
V2: S 3.89, L 3.33, W 2.44, Q 2.7, T 3.5, E 4.59, A 3.08, I 2.14
T9: G 1.69, V 2.07, Q 2, C 1.73, P 1.9
N23: M 1.89, A 2.06, W 1.74, E 2.67, Y 1.75, T 2.15, C 2.45
G5: C 1.93, H 1.74, A 1.71, N 1.92
N7: P 1.84, D 2.5, Y 1.5, Q 1.91, S 2.63, R 2.38, G 1.99, C 1.7, V 1.71, A 2.03
E8: D 1.56, A 1.45, P 1.16, G 2.44, R 1.95, N 1.8, Y 1.84
Y18: D 2.77, V 2.05, I 2.5, P 2.45, L 2.11, H 2.32, E 2.48, Q 2.34, W 2.21
N19: H 2.04, S 1.83, D 2.41, K 2.13, I 2.07, L 2.08, C 1.57
G4: E 2.11, I 2.1, Q 2.55
Y1: C 3.48, W 2.87, M 3.55, P 4.82, H 4.61
I3: W 1.02, F 1.76, M 2.1, A 3.4, N 1.81
E16: C 2.58, A 1.27, G 1.54, V 3.5, I 1.83, Y 1.84, Q 1.96
L12: F 1.8, Q 2.42, D 3.42, C 2.32, R 3.28
S14: Q 2.5, I 2.56, N 2.12, H 1.8, L 1.75, P 1.61, C 2.4, E 2.91, F 1.47, W 2.88, V 2.08, Y 2.01
E24: H 1.8, R 2.17, N 1.99, G 1.69, V 1.96, W 1.67, M 1.71
V15: T 1.74, P 2.46, C 1.66, S 2.5, Y 1.5, A 1.76
R6: I 1.67, V 1.87, S 2.35, H 1.9, A 2.93, C 2.21, K 2.05
L20: E 3.04, H 2.34, K 2.09, M 1.96, R 2.39
E21: W 3.54, G 2.19, K 2.26, F 2.62, A 2.66, S 2.29, N 1.55
S13: L 2.25, N 1.78, I 1.84, Q 1.64
C17: E 2.22, T 2.56, M 1.78, R 2.39, A 2.06, W 2.17
T22: A 2, H 2.54, R 2.62, L 2.1, C 1.79, G 1.86, M 1.49, W 1.53
Y11: H 2.45, Q 3.1, R 2.13, K 2.86, D 3.65, T 2.75
